# Target: dansyl-calmodulin (recombinant rat CaM, dansylated) (rat, UniProt P0DP29 1-149, dansylated with dansyl chloride)
# Experiment: other fluorescence titration
binder,measurement,value
RKLWKRFFCFLRRS,binding result,binds

# Source: article PMC7215194 (Heliyon, 2020)
